Source: patent US20260183411A1, “TARGETING SORTILIN” (priority 2024, published 2026)

Columns and labels:
[1] = Murine hematotoxicity assay; format: in vivo, mouse; details: 3 mg/kg i.v. QW×4, BALB/c mice
Description: (§1) Murine hematotoxicity experiments were conducted at Charles River Laboratories and the care and use of animals was conducted in accordance with the regulations of the Association for Assessment and Accreditation of Laboratory Animal Care (AAALAC). Wild type BALB/c, female, 7-8 weeks, weighing approximately 18-22 g were randomized and dosed intravenously with control or test articles at a QW×4 schedule. Dosing volume was adjusted based on body weight and was administered at 10 mL/Kg. PDCs were dissolved in 25 mM Histidine 10% sucrose pH 7 and 3 mg/kg was administered. Free MMAE payload was also tested, and similarly dissolved in 25 mM Histidine 10% sucrose pH 7 and administered to the mice at a dose of […] by i.v. injection at a QW×4 schedule. 3 days following each dose, 150 μL of whole blood was collected via submandibular method and placed in K2 EDTA tubes stored on ice. Blood neutrophil counts were performed on the day of collection by IDEXX labs. Body weights were recorded twice a week until study endpoint.
as §1, with “As outlined in the material” for “Murine hematotoxicity experiments were conducted at Charles River Laboratories”, “methods” for “the care and use”, “Example 1, wild” for “animals was conducted in accordance with the regulations of the Association for Assessment and Accreditation of Laboratory Animal Care (AAALAC). Wild”, “PDCs were dissolved in 25 mM Histidine 10% sucrose pH 7 and 3 mg/kg was administered.” left out

[2] = CMC formulation buffer screen; format: physicochemical; details: 0.5 mg/mL
Description: Exemplary conjugate agents (e.g., sortilin binding agents), referred to in the present Example as “peptide drug conjugates” or “PDCs” were assessed in a formulation screen to determine an appropriate vehicle for in vivo studies and to assess precipitation risk. PDC solutions were made up to 0.5 mg/mL in the following buffers: 25 mM Histidine 10% sucrose pH 7, 50 mM acetate/acetic acid, 10% sucrose pH 5, 1×PBS pH 7.4, Saline, 50 mM HEPES 10% sucrose pH 7. Solubility was assessed using a shake flask method and the test compound concentration of the filtrate was confirmed using HPLC-UV.
The following buffers were screened: 25 mM Histidine 10% sucrose pH 7, 50 mM acetate/acetic acid, 10% sucrose pH 5, 1×PBS pH 7.4, Saline, 50 mM HEPES 10% sucrose pH 7. The PDCs were soluble in all buffers tested (Table 1), and we proceed to use 25 mM Histidine, 10% sucrose pH 7 as our buffer of choice for our in vivo studies.

[3] = Murine plasma stability assay; format: in vitro ADME; details: mouse, 2 μM, 37° C., read-out: Murine plasma stability assay, T1/2
Description: Frozen plasma was thawed at 37° C. and centrifuged at 4000 rpm to remove any clots and transferred to 96-well reaction plates by WuXi AppTec. Test compounds were added to the reaction plate at a final concentration of 2 μM and either stopped immediately or incubated at 37° C. for 5 minutes, 10 minutes, 30 minutes, 60 minutes, or 120 minutes. At the end of incubation, stop solution consisting of 200 ng/mL tolbutamide and 200 ng/mL labetalol in ACN was added to precipitate protein and mixed thoroughly. Samples were then transferred to a bioanalysis plate and shaken for 10 minutes prior to HPLC-MS/MS analysis of percent remaining compound.
Table 14 tabulates the plasma stability for each of the three PDCs tested.

SORT1 = molecular target: T1, SORT1 (Homo sapiens, UniProt Q99523); assay: FP competition binding assay
T1 construct: Human SORT1 (78-755)-His (Acrobiosystems); His (C); purchased Acrobiosystems SON-H52H5
T1 sequence (Q99523 78-755): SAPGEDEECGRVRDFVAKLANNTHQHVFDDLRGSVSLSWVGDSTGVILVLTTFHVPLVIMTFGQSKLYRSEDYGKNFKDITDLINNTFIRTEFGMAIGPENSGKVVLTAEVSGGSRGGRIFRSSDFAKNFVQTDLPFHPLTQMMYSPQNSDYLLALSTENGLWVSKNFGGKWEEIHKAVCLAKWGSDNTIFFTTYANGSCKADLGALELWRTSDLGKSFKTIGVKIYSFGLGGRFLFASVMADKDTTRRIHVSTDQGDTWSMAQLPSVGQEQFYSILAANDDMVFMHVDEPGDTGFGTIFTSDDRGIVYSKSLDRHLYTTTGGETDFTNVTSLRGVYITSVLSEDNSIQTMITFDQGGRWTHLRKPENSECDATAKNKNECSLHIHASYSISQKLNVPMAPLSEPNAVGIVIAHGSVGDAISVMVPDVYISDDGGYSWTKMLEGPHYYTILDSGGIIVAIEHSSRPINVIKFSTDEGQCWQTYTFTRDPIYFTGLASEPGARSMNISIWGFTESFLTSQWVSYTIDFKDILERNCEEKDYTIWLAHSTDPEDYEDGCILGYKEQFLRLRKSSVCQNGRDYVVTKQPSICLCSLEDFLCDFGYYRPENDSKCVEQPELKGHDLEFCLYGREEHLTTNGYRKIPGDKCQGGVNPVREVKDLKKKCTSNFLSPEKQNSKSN
Description: Competition binding studies were conducted in a similar manner to the direct binding protocol. Unlabeled peptides were prepared with a 12-point, two-fold dilution series in a V-bottom 96-well plate for a total volume of 25 uL with a starting concentration of 50 μM. A 10× working stock of the FAM labeled peptide was prepared as described for the Direct binding experiment.
A 500 nM working solution (EC80) of target protein was prepared in the FP buffer (1×PBS, pH 7.4, 0.1% Tween-20). An aliquot of 20 μL of the 500 nM working solution was then added to 2.5 μL of the FAM-peptide, after which 2.5 μL of the unlabeled peptide dilution series was added and mixed by pipetting in a V-bottom 96-well plate. […] The 384-well plate was then centrifuged 1 min, 4000 rpm and fluorescence and polarization of dye measured on a Biotek Synergy Neo2 plate reader using the same settings as for the Direct Binding experiment. Data were then fitted to a One site—Fit log IC50 curve in GraphPad to calculate the IC50.
The various conjugates were evaluated in a competitive fluorescence polarization study as described elsewhere herein.

SMILES: CC[C@H](C)[C@@H]([C@@H](CC(=O)N1CCC[C@H]1[C@H](OC)[C@@H](C)C(=O)N[C@H](C)[C@@H](O)c1ccccc1)OC)N(C)C(=O)[C@@H](NC(=O)[C@H](C(C)C)N(C)C(=O)OCc1ccc(NC(=O)[C@H](CCCNC(N)=O)NC(=O)[C@@H](NC(=O)CCCC(=O)NCCC(=O)N(C)CC(=O)N(C)CC(=O)N(C)CC(=O)N(C)CC(=O)N[C@@H](C)C(=O)N2CCC[C@H]2C(=O)N[C@@H](CCCNC(=N)N)C(=O)N[C@@H](Cc2c[nH]c3ccccc23)C(=O)N[C@@H](CC(=O)O)C(=O)N[C@@H](C)C(=O)N2CCC[C@H]2C(=O)N[C@@H](CC(C)C)C(=O)N[C@@H](CCCNC(=N)N)C(=O)N[C@@H](CC(=O)O)C(=O)N2CCC[C@H]2C(=O)N[C@@H](C)C(=O)N[C@@H](CC(C)C)C(=O)N[C@@H](CCCNC(=N)N)C(=O)N[C@@H](CCC(N)=O)C(=O)N[C@@H](CC(C)C)C(=O)N[C@@H](CC(C)C)C(=O)O)C(C)C)cc1)C(C)C [PRGN_WT_PDC]
- blood neutrophil counts compared to vehicle or MMAE treatment [1]: reduced neutrophil counts
- result (buffer screening) ([2]; 25 mM Histidine 10% sucrose pH 7): clear solution
- result (buffer screening) ([2]; 50 mM HEPES 10% sucrose pH 7): clear solution
- result (buffer screening) ([2]; 50 mM acetate/acetic acid, 10% sucrose pH 5): clear solution
- result (buffer screening) ([2]; 1x PBS pH 7.4): clear solution
- result (buffer screening) ([2]; Saline): clear solution
- half-life [3]: 17.1 min
- increase in affinity relative to parent homing peptide (SORT1): ~2.5 ×
